B1: C1-M (dsDNA)
DNA 1: GAAACACCCTGTACTCCGAAAAGGTCCCTGGCCCGGAGCTCTG
DNA 2: CAGAGCTCGGGGCCAGGGACCTTTTCGGAGTACAGGGTGTTTC
B2: C2-M (dsDNA)
DNA 1: GGACCCTGAGCTCAGAAAAGGTCCCTGGTCCACGGGCT
DNA 2: AGCCCGTGGACCAGGGACCTTTTCTGAGCTCAGGGTCC
B3: IL6-M (dsDNA)
DNA 1: TTGCTATTAAATGTGTTCGTTTGTACAGAGTCTCAAAA
DNA 2: TTTTGAGACTCTGTACAAACGAACACATTTAATAGCAA

Molecular target: His-RelA (p65) (UniProt Q04206 1-551)
Test: EMSA; EMSA: 10 mM Tris-HCl pH 7.9, 50 mM NaCl, 1 mM MgCl2, 1 mM EDTA, 5 mM DTT, 5% glycerol, 0.5 µg poly dI.dC, 2-10 µg acetylated BSA, 10 min, room temperature; gel
Settings: protein: recombinant, tags: His, chain copies: 2

Sequence of His-RelA (p65) (Q04206 whole entry): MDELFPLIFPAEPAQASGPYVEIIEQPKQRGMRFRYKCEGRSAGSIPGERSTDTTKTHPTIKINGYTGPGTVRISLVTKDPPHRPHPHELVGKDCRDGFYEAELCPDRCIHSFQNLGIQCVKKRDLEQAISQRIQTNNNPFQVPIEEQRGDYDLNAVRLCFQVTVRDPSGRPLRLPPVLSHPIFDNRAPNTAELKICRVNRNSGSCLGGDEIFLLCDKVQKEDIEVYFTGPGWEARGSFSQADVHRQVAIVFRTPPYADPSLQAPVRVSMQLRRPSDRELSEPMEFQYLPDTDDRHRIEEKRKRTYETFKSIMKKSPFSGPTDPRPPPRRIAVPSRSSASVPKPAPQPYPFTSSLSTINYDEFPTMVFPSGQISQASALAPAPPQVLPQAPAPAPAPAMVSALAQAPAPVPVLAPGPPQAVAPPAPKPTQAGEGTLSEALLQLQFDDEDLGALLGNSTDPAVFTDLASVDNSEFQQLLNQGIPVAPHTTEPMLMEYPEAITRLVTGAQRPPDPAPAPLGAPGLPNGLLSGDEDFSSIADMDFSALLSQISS

Binder | binding result (blunt as printed, one internal mismatch outside the motif (printed)) | binding result (blunt)
B1 | no binding | –
B2 | – | no binding
B3 | – | no binding

— publication PMC8164026, “Intrapulmonary administration of purified NEIL2 abrogates NF-κB–mediated inflammation”
